Test results: patent US20230302054A1

Molecular target: CD19 antigen on NALM-6 tumor cells (pre-B cell leukemia) (human) (UniProt P15391)
Test: cell-based or functional assay

CD19 antigen on NALM-6 tumor cells (pre-B cell leukemia) (human), sequence (P15391 20-556): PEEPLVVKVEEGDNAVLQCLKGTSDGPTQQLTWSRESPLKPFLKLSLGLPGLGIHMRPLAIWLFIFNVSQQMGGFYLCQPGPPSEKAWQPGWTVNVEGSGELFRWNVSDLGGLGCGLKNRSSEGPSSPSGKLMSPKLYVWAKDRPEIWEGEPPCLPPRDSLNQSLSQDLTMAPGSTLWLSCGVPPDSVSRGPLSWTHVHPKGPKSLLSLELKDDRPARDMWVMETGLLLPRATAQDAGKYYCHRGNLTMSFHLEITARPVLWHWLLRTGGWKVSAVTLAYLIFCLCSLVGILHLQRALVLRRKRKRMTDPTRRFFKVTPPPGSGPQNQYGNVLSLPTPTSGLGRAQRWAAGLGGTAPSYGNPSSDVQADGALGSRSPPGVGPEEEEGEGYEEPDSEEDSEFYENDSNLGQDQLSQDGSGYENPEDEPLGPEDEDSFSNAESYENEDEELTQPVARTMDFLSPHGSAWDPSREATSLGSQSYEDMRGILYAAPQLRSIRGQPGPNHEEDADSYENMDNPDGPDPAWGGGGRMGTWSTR

Work on “Anti-hCD19-CD3 bispecific T cell engager (BiTE) (InvivoGen, #bimab-hcd19cd3) (bispecific antibody)” yielded a BiTE-mediated NALM-6 tumor killing (luciferase-based readout, Bcl-xL-transfected CD8+ T cells as effectors) of over 95%.
